Assay results taken from US20260049134A1.

Target: SELL (L-Selectin)
Assay: ELISA on coated SELL-Fc-His, 150 ng IgG1; None 0.096

Chain of SELL (L-Selectin) (chain, as listed by the source limits assumed): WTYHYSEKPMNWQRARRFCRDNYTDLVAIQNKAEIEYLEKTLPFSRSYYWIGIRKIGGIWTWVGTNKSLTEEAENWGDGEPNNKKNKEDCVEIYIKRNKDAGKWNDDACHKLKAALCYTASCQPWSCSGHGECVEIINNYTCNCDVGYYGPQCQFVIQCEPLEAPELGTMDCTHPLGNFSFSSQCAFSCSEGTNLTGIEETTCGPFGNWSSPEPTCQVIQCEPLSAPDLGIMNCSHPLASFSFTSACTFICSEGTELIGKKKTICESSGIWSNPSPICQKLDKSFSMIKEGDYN

B1: HW-28 chimeric rabbit-human IgG1 LA/LA/PG (antibody, V domains shown)
VH: QKQLVESGGRLVTPGTPLTLTCTASGFSLSSNAMSWVRQAPGEGLQWIGTISSGGSTYYASWAKGRFTISKTSTTVTLKMTSLTTEDTATYFCARGADLHRLWGPGTLVTVSS
VL: SFVLTQPASVQVNLGQTVSLTCTGKPLSRSFASWYQQKPGQAPVLVIYRDTSRPSGVPDRFSGSSSGNTATLTISGAQAGDEADYYCATSDGSGSSYQYVFGGGTQLTVTG
With B1 the ELISA Absorbance (405 nm-570 nm) was 0.188.
